Assay [1] has as its target T1, mouse VISTA expressed on cells (mouse, UniProt Q9D659 33-308).
T1 construct: whole, on cells; also called murine VISTA on transfected cells; VISTA on mouse CD11b+ myeloid cells
T1 sequence (looked up): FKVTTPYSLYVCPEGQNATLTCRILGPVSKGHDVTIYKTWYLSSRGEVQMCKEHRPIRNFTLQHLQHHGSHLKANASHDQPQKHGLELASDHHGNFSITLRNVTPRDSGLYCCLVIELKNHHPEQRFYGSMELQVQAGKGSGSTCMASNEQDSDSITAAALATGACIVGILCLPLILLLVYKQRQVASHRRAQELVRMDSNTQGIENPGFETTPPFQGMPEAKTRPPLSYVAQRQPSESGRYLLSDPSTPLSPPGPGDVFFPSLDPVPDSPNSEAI
Briefly: flow cytometry on cells transfected with murine VISTA.

In assay [2] the target is T2, recombinant mouse VISTA (His-tagged) (mouse, UniProt Q9D659 33-191).
T2 construct: also called murine VISTA; mVISTA
T2 sequence (looked up): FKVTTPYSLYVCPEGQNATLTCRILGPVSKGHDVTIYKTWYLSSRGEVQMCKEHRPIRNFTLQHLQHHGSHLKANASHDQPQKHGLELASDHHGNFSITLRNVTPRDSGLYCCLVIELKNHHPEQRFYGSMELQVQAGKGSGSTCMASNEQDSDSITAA
The experiment in a line: BLI (Octet), 1:1 global fit, His-tagged mouse VISTA captured.

Assay [3] concerns the target T2, recombinant mouse VISTA (His-tagged). The experiment in a line: ELISA, plate coated with mouse VISTA; unit nM from the legend paragraph 698.
For assay [4], the target named is T3, recombinant human VISTA (His-tagged) (human, UniProt Q9H7M9 33-194).
T3 construct: bought soluble protein (Sino Biological); also called hVISTA; human VISTA polypeptide
The experiment in a line: ELISA, plate coated with human VISTA.

Assay [5] deals with T4, human B7H3 (human, UniProt Q5ZPR3 29-461, limits assumed).
T4 construct: also called CD276
T4 sequence (looked up): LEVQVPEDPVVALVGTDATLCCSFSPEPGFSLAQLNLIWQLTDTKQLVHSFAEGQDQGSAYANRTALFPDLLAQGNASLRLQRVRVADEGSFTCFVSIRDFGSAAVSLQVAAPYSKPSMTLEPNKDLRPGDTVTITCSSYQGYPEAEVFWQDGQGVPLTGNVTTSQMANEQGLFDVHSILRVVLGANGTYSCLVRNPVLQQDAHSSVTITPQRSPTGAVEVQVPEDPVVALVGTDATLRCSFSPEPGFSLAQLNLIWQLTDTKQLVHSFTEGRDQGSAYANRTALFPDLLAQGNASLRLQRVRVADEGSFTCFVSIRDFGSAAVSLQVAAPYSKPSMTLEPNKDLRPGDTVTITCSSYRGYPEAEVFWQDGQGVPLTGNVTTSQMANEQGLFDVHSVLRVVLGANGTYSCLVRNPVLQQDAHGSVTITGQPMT
Briefly: ELISA, plate coated with the antigen.

Assay [6] addresses T5, human B7H4 (human, UniProt Q7Z7D3 25-258, limits assumed).
T5 construct: also called VTCN1
T5 sequence (looked up): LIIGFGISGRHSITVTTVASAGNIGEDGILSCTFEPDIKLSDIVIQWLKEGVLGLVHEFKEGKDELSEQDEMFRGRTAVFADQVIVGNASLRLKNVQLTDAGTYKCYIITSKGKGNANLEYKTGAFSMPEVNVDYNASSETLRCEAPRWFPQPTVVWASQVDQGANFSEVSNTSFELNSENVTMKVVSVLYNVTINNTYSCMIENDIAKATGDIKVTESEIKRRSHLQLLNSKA
The experiment in a line: ELISA, plate coated with the antigen.

For assay [7], the target named is T6, human B7H7 (human, UniProt Q9UM44 23-344).
T6 construct: also called HHLA2
T6 sequence (looked up): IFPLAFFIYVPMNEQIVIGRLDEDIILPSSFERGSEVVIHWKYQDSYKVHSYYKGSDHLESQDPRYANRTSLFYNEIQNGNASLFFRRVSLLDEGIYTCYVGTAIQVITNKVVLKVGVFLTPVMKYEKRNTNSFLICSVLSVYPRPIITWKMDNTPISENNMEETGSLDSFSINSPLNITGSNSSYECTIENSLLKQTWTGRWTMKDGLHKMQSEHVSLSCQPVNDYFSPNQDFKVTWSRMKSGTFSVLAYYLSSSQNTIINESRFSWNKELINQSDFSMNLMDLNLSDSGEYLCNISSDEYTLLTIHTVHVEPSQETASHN
The experiment in a line: ELISA, plate coated with the antigen.

Assay [8] concerns the target human PD-1 (human, UniProt Q15116 25-167). Briefly: ELISA, plate coated with the antigen.
Assay [9] concerns the target human CTLA4 (human, UniProt P16410 36-162). Briefly: ELISA, plate coated with the antigen.
Assay [10] concerns the target T7, human B7H6 (human, UniProt Q68D85 25-262).
T7 construct: also called NCR3LG1
T7 sequence (looked up): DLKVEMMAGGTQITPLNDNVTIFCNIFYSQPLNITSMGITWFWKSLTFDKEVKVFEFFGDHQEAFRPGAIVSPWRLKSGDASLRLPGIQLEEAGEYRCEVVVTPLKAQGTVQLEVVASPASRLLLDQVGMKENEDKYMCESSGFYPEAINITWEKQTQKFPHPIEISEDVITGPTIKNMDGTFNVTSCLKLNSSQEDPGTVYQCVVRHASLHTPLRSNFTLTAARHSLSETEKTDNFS
The experiment in a line: ELISA, plate coated with the antigen.

The target of assay [11] is T3, recombinant human VISTA (His-tagged). The experiment in a line: ELISA, plate coated with human VISTA; unit nM from the legend paragraph 698.
Assay [12] has the same target. The experiment in a line: ELISA, plate coated with human VISTA; unit nM from the legend paragraph 697.
Assay [13] deals with T2, recombinant mouse VISTA (His-tagged). Briefly: BLI (Octet), 1:1 global fit, His-tagged mouse VISTA captured. The source holds these as a separate data set.
The target of assay [14] is T8, recombinant rat VISTA (His-tagged) (rat, UniProt A0ABK0L5H3 33-192).
T8 sequence: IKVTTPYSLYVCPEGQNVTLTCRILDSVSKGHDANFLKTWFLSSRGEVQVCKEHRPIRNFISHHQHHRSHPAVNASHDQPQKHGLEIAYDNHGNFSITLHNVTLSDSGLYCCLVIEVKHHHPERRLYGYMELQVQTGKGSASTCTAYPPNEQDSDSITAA
Briefly: ELISA, plate coated with rat VISTA.

Assay [15] has as its target T3, recombinant human VISTA (His-tagged). Briefly: ELISA, plate coated with human VISTA. The source holds these as a separate data set.
The target in assay [16] is T9, human PD-L1 (human, UniProt Q9NZQ7 19-239).
T9 construct: captured through a His tag in the BLI experiments; also called hPD-L1; B7H1/PDL-1
The experiment in a line: BLI (Octet), His-tagged human PD-L1 on anti-Penta-HIS biosensor, antibody 500-15.6 nM.
Method: Finally, the biosensors were incubated for 120 sec in PBS pH 7.2 to obtain the dissociation curves. Kinetic and affinity constants were calculated by global fitting of the association and dissociation data to a 1:1 binding model.

Assay [17] addresses T10, recombinant cynomolgus macaque VISTA (His-tagged) (cynomolgus macaque, UniProt A0A7N9IB00 33-194).
T10 construct: also called cyno VISTA; cynomolgus monkey VISTA
The experiment in a line: ELISA, plate coated with cyno VISTA.

The target of assay [18] is T3, recombinant human VISTA (His-tagged). The experiment in a line: BLI (Octet), 1:1 global fit, His-tagged human VISTA captured.
The target of assay [19] is T2, recombinant mouse VISTA (His-tagged). The experiment in a line: ELISA, plate coated with mouse VISTA; unit nM from the legend paragraph 697.
Assay [20] has the same target. Briefly: ELISA, plate coated with mouse VISTA.

Read-outs that look alike come from different tables or passages of the source.

Sequence of human CTLA4 (P16410 36-162 limits assumed): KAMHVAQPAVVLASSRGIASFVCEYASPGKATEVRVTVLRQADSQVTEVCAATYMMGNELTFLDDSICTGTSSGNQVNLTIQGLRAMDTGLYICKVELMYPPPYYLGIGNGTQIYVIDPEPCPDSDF
T9 sequence (Q9NZQ7 19-239 limits assumed): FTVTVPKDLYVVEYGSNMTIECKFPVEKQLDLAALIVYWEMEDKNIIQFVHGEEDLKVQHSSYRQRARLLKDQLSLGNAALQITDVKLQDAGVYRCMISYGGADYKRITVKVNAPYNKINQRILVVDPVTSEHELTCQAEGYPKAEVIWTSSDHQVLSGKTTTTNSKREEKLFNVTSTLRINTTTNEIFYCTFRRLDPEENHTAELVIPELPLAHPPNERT
Sequence of human PD-1 (Q15116 25-167 limits assumed): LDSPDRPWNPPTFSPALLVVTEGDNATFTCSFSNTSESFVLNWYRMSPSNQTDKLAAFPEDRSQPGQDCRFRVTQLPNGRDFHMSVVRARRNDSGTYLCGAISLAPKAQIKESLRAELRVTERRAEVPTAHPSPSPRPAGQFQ

B1: anti-VISTA clone 13D5p IgG1 (antibody, V domains shown)
VH: QVQLQQSGAELVRPGTSVKISCKASGYTFTNYWLGWVKQRPGHGLEWIGDIYPGGGYTNYNEKFKGKATLTADTSSSTAYMQLSSLTSEDSAVYFCARGGYYYGSSWYFDVWGAGTTVTVSS
VL: DVLMTQTPLSLPVSLGDQASISCRSSQSIVHSNGNTYLEWYLQKPGQSPKLLIYKVSNRFSGVPDRFSGSGSGTDFTLKISRVEAEDLGVYYCFQGSHVPPTFGGGTKLEIKR
Regarding B1, the binding result in assay [1] was “binds”.

B2: anti-VISTA clone V4-C31 IgG1 (antibody, V domains shown)
VH: QVQLQESGPGLVKPSDTLSLTCTVSGYSITSDYTWNWIRQTPGKGLEWIGHITYSGSVSYNPSLRSRVTISRDTSKNQFSLKLSSVTAADTATYSCARALYYPWYFDVWGTGTTVTVSS
VL: EIVLTQSPATLSLSPGERATLSCRASSSVGYIHWYQQKPGQAPRPLIYATYYRTTGIPARFSGSGSGTDNTLTISSLEPEDSAVYYCQQWSSYPPITFGGGTKLEVKR
Consider B2, for which the Kd in assay [2], in assay [13] and in assay [18] was less than 1 pM throughout. In addition, the off-rate (koff) in assay [2], in assay [13] and in assay [18] was less than 1e-07 s⁻¹ in each case. Moreover, the kon in assay [2] came to 570000 M⁻¹ s⁻¹; in assay [13], 344000 M⁻¹ s⁻¹; in [18], 623000 M⁻¹ s⁻¹. Further, the EC50 was 0.028 nM in assay [3]; 0.02 nM in assay [11]; 3.2 pM in assay [12]; 0.224 nM in assay [14]; 0.0408 nM in assay [15]; 0.0321 nM in assay [17]. Besides, the concentration giving a half-maximal response (EC50) in [19] is 3 pM; in assay [20], 0.04 nM. Moreover, the concentration for a half-maximal effect (EC50 (read off the curve)) in assay [4] was roughly 20 pM. The binding result in assay [5], in assay [6], in assay [7], in assay [8], in assay [9] and in assay [10] was “no binding (tested: log -7.5 M)” each time. Also, the binding result in assay [16] was “no binding (tested: 500 nM)”.

These data come from US20250313631A1 (HUMMINGBIRD BIOSCIENCE PTE, published 2025).
